Assay results: the supplement of paper PMC12764529
± gives the half width of the 95% confidence interval.

What was measured:
[1] = folding stability dG unfold from chymotrypsin proteolysis; higher = more stable
Procedure, shortened: (§1)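 Unfolding free energy was derived, per protease or combined, against a sequence-predicted unfolded-state K50 and a shared folded-state K50, starting from K50 inferred by Bayesian fitting of sequencing counts. Digestion with trypsin and chymotrypsin was carried out on designed mini-proteins under 80 residues without cysteine in a PA-tagged cDNA display construct. Only designs with AlphaFold2 dimer inter-PAE above 15 were kept.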

[2] = folding stability dG unfold (combined trypsin and chymotrypsin); higher = more stable
Procedure, shortened: as §1

[3] = folding stability dG unfold from trypsin proteolysis; higher = more stable
Procedure, shortened: as §1

Sequence	folding stability dG unfold [1] [kcal/mol]	folding stability dG unfold [2] [kcal/mol]	folding stability dG unfold [3] [kcal/mol]
SAGGSAMVVIRTTKPGGKVEVLAVNPEDGSKTVKTFSSSTSPKEVFEEVNKEFGGEVKVEKVELKASAGGSA [r15_544_TrMRF]	-0.912 ± 0.58	-0.512 ± 0.18	-0.439 ± 0.18
SAGGSAMVYLVTVTIKSEGKEVRYKEWVESDEPEKLIEKVKKEYPNEEIKVEITPFPSKEEAEKLLSAGGSA [r15_889_JUSTAS]	2.48 ± 0.042	2.41 ± 0.096	2.36 ± 0.098
SAGGSAMYKVEVTATTSSSSTPYPLEMDFETEEEAKERVKKYLEEKYGDPISSIETKIEPVEPGLESAGGSA [r15_670_JUSTAS]	-0.645 ± 0.57	-0.234 ± 0.36	-0.314 ± 0.21
SAGGSAMYYRFEIPRPDGVIEEIWIKMTPEEAKALVEALEADPNVASVKVEAITEEEARKLGIFENSAGGSA [r15_39_JUSTAS]	4.46 ± 0.12	4.34 ± 0.18	4.17 ± 0.28
SAGGSANGYFILIKIEEIKLTKMRRDPDGKQWQWNFSVKIKIEVVKVFRIKPDPNGNWKIEPGDPISAGGSA [r15_162_TrROS]	3.33 ± 0.053	3.25 ± 0.12	3.01 ± 0.11
SAGGSANNWKPIGEFPFRHPDGWRVTVPIWRDPGEGNIKINVKYQGPNGPPSKQMKEWAKKLLDEISAGGSA [r15_529_TrROS]	0.654 ± 0.32	0.866 ± 0.31	0.936 ± 0.15
SAGGSANPNGKPWVEVEVSFMIPIDDEDIADALGGPPKPGDWLMITVKIRVYPDGNVEIDINLHPMSAGGSA [r15_91_TrROS]	3.88 ± 0.22	3.95 ± 0.19	3.96 ± 0.14
SAGGSANWYIKITIEYPNGREWEIPFPFKSVEDVKDQIKNAAREYFPNLPPEDVKIDDIELYPLDDSAGGSA [r15_220_TrROS]	2.01 ± 0.04	1.83 ± 0.097	1.3 ± 0.056
SAGGSAPARIVLPGGRTRTLRLSEISPELLAAFPDVLVRLPGGEVRRLPADTLLSLEGDYTLVVPGSAGGSA [r15_733_TrMRF]	0.573 ± 0.12	0.335 ± 0.099	-0.262 ± 0.18
SAGGSAPDWKIVDIEPTDNSITITVEAPPGVRVMIFNPGNGKVQHRPFPPGDTITIPPRMYIMVWVSAGGSA [r15_418_TrROS]	3.121 ± 0.03	2.84 ± 0.081	2.43 ± 0.032
SAGGSAPEALVFVERREDDSLTVVVLFPDGTLVTRRVEVRDEGVTVETETAPVLVIPEPGRLELALSAGGSA [r15_746_TrMRF]	1.39 ± 0.046	1.14 ± 0.051	0.595 ± 0.029
SAGGSAPEPIRFYFWWPGKIIEITIPPDEIEKVEIKPDNGDIDITVKLPGEEVEISITPGAIHVQTSAGGSA [r15_598_TrROS]	2.57 ± 0.032	2.29 ± 0.17	1.56 ± 0.11
SAGGSAPFPIKISTIRYPDGYIRMEIWIPPDAPIKIKFPNGFEMEVEPVPNGYYRITMYFRIPKEDSAGGSA [r15_523_TrROS]	4.79 ± 0.11	4.53 ± 0.15	3.77 ± 0.094
SAGGSAPGEPIFIRWKIEHPNGNPWTIPFPIKTEEQALEQAIRFAESIAKKLGNPNVKIKIDEIIPSAGGSA [r15_698_TrROS]	0.575 ± 0.44	0.914 ± 0.21	1.11 ± 0.12
SAGGSAPGWYPITYEFEDNNKEIKIEVYYPKEDPMVGVDIEDPDGKVIFTIWFPADNAEKALKEILSAGGSA [r15_940_TrROS]	1.49 ± 0.071	1.39 ± 0.092	1.23 ± 0.07
SAGGSAPKEGTIWIMIPVRYERDPNGKVKPISAEQIADLFQELGFPIKIDEIFDSPGYIMIRIKVKSAGGSA [r15_225_TrROS]	3.204 ± 0.032	3.04 ± 0.16	2.5 ± 0.075
SAGGSAPLPPGAVVEIVEVRFDPETRRIEMVVKVYDANGELVATLRVELEFDPETNELTLRVELLPSAGGSA [r15_1028_TrROS_Hall]	4.5 ± 0.18	4.23 ± 0.14	3.41 ± 0.24
SAGGSAPMFEIWFRDPEAIEKLLEESGFPVSIERFPNDPNWVKITIFMKGPMEEAQDKLREALGLESAGGSA [r15_118_TrROS]	2.95 ± 0.014	2.74 ± 0.036	2.29 ± 0.04

Sequence	folding stability dG unfold [1] [kcal/mol]	folding stability dG unfold [2] [kcal/mol]	folding stability dG unfold [3] [kcal/mol]
SAGGSAPPEWRTIMIPMKPDDVDNAIEELRNELPPGRNINIHLQDPEPGRYFMITIRGNKIEIHFMSAGGSA [r15_257_TrROS]	2.12 ± 0.21	2.29 ± 0.17	2.1 ± 0.17
SAGGSAPPNWRRIEITFYIPPGQPTVSELADHIAKRIGFPVTGVEIDKVERNPDGAYEVKVSIIVPSAGGSA [r15_654_TrROS]	2.9 ± 0.054	2.75 ± 0.15	2.69 ± 0.056
SAGGSAPREIPIMIRVPGYQIEIHKITVPPNGMVQIGLEWRNPGGDKPVTINIWLPLNEIKDFIKASAGGSA [r15_56_TrROS]	3.1 ± 0.042	2.54 ± 0.14	1.83 ± 0.042
SAGGSAPSISYTDPNITTITVNPPYITTTRPDGTTTVYKVNNGGDITKLKTTPPVPPAAATDASVASAGGSA [r15_393_JUSTAS]	0.421 ± 0.13	0.148 ± 0.16	-0.17 ± 0.071
SAGGSAPSPEVPLWRFEAPGASGGVALIEGYPGGELRVVFFTDDGRPVELTFPVVVLPPAPLEELFSAGGSA [r15_478_TrMRF]	1.24 ± 0.086	1.38 ± 0.075	1.51 ± 0.039
SAGGSAPSSGNVLEIKVEKLPDGTLVGTLTVKDPNSSNTTTIEITIPSSKTPEEAEAELKKIVEEASAGGSA [r15_181_JUSTAS]	2.09 ± 0.025	2.11 ± 0.057	2.11 ± 0.068
SAGGSAPSVFPFKAKFKDYDLEIKSITVYENGEVEINAIAYNPDGKKKVELNITLPYSEILDLLKSSAGGSA [r15_56_TrMRF]	2.68 ± 0.037	2.55 ± 0.094	2.35 ± 0.059
SAGGSAPVVVVVTPKNGKPIKLKFKFTKKEEAEAAVEEIKKALPKNTKVEAFYVDEEVVKEDKEYLSAGGSA [r15_469_TrMRF]	1.97 ± 0.068	1.71 ± 0.054	1.16 ± 0.017
SAGGSARVVILPDGYLLVEVDGKPFLFGPNDEVEIEEEGDELILRLRLRDKDGKEVGEFPFRFRLESAGGSA [r15_424_TrMRF]	3.026 ± 0.016	2.9 ± 0.055	2.71 ± 0.039
SAGGSASAEEAARAFVAAHPDRALVEVEIERSFIPEKGVEVVTLTVTLAFPDGSRRVVPVTVTRPRSAGGSA [r15_266_JUSTAS]	1.06 ± 0.044	1.13 ± 0.071	1.11 ± 0.044
SAGGSASIEIPVGDKPVRIEILSLEPEGERVRARAVVYFPDDPEYREISGDLTLEELIDAILEAIGSAGGSA [r15_944_TrMRF]	1.148 ± 0.011	1.21 ± 0.074	1.3 ± 0.016
SAGGSASIGEELAKELFPDLPLKVEPKEVPLEDGKTETVVTATFPDGKKVTITFEGDKIVEVTEVESAGGSA [r15_417_JUSTAS]	0.994 ± 0.074	0.718 ± 0.11	0.445 ± 0.095
SAGGSASLEEVIESVTKPLGAKGEIDPETGVTYVQDPSGENLTLETEDGRPLKVTYEPEGKWTAVESAGGSA [r15_256_JUSTAS]	-0.199 ± 0.45	0.24 ± 0.28	0.301 ± 0.046
SAGGSASLQTSTASVSPGALEKAIEAAKAAPPGTAVSVSFGDPVVGTPRPVTLTVDSAGNLVEITGSAGGSA [r15_228_JUSTAS]	0.0446 ± 0.08	0.188 ± 0.097	0.376 ± 0.029
SAGGSASMGVSVAAIAEALDAARPAGAPPLVYVKLPNGEVVRVSPDESLTSISPEGEVEIEIRFLPSAGGSA [r15_50_JUSTAS]	0.81 ± 0.022	0.878 ± 0.04	0.907 ± 0.018
SAGGSASMIFADDPAQAEAYVKPLFPNGPPFDIVELSEEEGKELVEKLKKEGKPYKVIVIKDPSKPSAGGSA [r15_567_JUSTAS]	0.507 ± 0.42	0.341 ± 0.3	0.192 ± 0.19
SAGGSASMSNVTSYVTVYKKPGVDDLYYKVRILAPSEPKVIEIPESEIPKYEKEGIKIEKVSEELLSAGGSA [r15_783_JUSTAS]	1.96 ± 0.32	1.28 ± 0.34	0.901 ± 0.36
SAGGSASPVLTTVTFPGSPEELEAYAAEVRAAGTLLSVSFSPSPDPSYYTITLQVRAPDGTYFTAESAGGSA [r15_177_JUSTAS]	1.55 ± 0.083	1.39 ± 0.061	1.14 ± 0.03
